Measured values from article PMC8208478, “A Bacteriophage DNA Mimic Protein Employs a Non-specific Strategy to Inhibit the Bacterial RNA Polymerase” (Frontiers in Microbiology, 2021).

Target: T1, His-tagged Gp44, full length (1–237) (bacteriophage SPO1)
T1 construct: Gp44, product of gene 44 of bacteriophage SPO1 of Bacillus subtilis, full length, residues 1-237, 27 kDa; The purified constructs came from pET-46 EK/LIC, which adds an N-terminal His-tag; C-terminal His-tagged and tag-free constructs (pDE2) were also made; PDB 6L6V holds only residues 1-55; also called Gp44^(1–237); recombinant Gp44; not shown: His-tag, N-terminal, kept
Assay: ITC; MicroCal PEAQ-ITC, 25°C, dialysis buffer; 30 μM β or β′ subunit in the cell, 300 μM Gp44 in the syringe, 19 injections of 2 μL at 120 s intervals
Conditions: both partners purified

B1: recombinant RNAP β subunit used in ITC (species not named) (natural protein)
chain: MTGQLVQYGRHRQRRSYARISEVLELPNLIEIQTSSYQWFLDEGLREMFQDISPIEDFTGNLSLEFIDYSLGEPKYPVEESKERDVTYSAPLRVKVRLINKETGEVKDQDVFMGDFPIMTDTGTFIINGAERVIVSQLVRSPSVYFSGKVDKNGKKGFTATVIPNRGAWLEYETDAKDVVYVRIDRTRKLPVTVLLRALGFGSDQEILDLIGENEYLRNTLDKDNTENSDKALLEIYERLRPGEPPTVENAKSLLDSRFFDPKRYDLANVGRYKINKKLHIKNRLFNQRLAETLVDPETGEILAEKGQILDRRTLDKVLPYLENGIGFRKLYPNGGVVEDEVTLQSIKIFAPTDQEGEQVINVIGNAYIEEEIKNITPADIISSISYFFNLLHGVGDTDDIDHLGNRRLRSVGELLQNQFRIGLSRMERVVRERMSIQDTNTITPQQLINIRPVIASIKEFFGSSQLSQFMDQTNPLAELTHKRRLSALGPGGLTRERAGMEVRDVHYSHYGRMCPIETPEGPNIGLINSLSSYAKVNRFGFIETPYRRVDPETGKVTGRIDYLTADEEDNYVVAQANARLDDEGAFIDDSIVARFRGENTVVSRNRVDYMDVSPKQVVSAATACIPFLENDDSNRALMGANMQRQAVPLMQPEAPFVGTGMEYVSGKDSGAAVICKHPGIVERVEAKNVWVRRYEEVDGQKVKGNLDKYSLLKFVRSNQGTCYNQRPIVSVGDEVVKGEILADGPSMELGELALGRNVMVGFMTWDGYNYEDAIIMSERLVKDDVYTSIHIEEYESEARDTKLGPEEITRDIPNVGEDALRNLDDRGIIRIGAEVKDGDLLVGKVTPKGVTELTAEERLLHAIFGEKAREVRDTSLRVPHGGGGIIHDVKVFNREDGDELPPGVNQLVRVYIVQKRKISEGDKMAGRHGNKGVISKILPEEDMPYLPDGTPIDIMLNPLGVPSRMNIGQVLELHMGMAARYLGIHIASPVFDGAREEDVWETLEEAGMSRDAKTVLYDGRTGEPFDNRVSVGIMYMIKLAHMVDDKLHARSTGPYSLVTQQPLGGKAQFGGQRFGEMEVWALEAYGAAYTLQEILTVKSDDVVGRVKTYEAIVKGDNVPEPGVPESFKVLIKELQSLGMDVKILSGDEEEIEMRDLEDEEDAKQADGLALSGDEEPEETASADVERDVVTKE
Kd: 3.46 ± 0.27 µM
